Test results reported in patent US20110319338A1, “PEPTIDES THAT BIND EUKARYOTIC TRANSLATION INITIATION FACTOR 4E” (The Board of Regents of the University of Texas System, priority 2008, published 2011).
Read-outs that look alike come from different tables or passages of the source.

Experiments:
eIF4E = target: T1, eIF4E (Homo sapiens, UniProt P06730); experiment: Streptavidin-agarose pull-down of biotinylated peptide from OVCAR-3 cell lysate, Western blot with eIF4E antibody; type: binding; conditions: biotinylated peptide 3 micromoles per liter, 250 micrograms OVCAR-3 cell lysate
T1 construct: endogenous in cells; host or cells: OVCAR-3 cell lysate
Protocol: (§1) FIGS. 1A-1G. 4EBP peptides bind eIF4E and inhibit binding of eIF4E to eIF4G. (FIG. 1A) Sequences of peptides comprising residues 49 to 68 of 4EBP1 and 4EBP2. (FIG. 1B) Biotinylated peptides (3 micromoles per liter) were incubated with 250 micrograms of OVCAR-3 cell lysate. Peptides were pulled-down using streptavidin-agarose. Precipitates (P) and supernatants (S) were analyzed by Western blot using eIF4E antibody. In (FIG. 1C), immunoprecipitation was performed using eIF4E antibody, and Western blot performed using eIF4G antibody. (FIG. 1D) Sequences of wild-type and mutant 4EBP peptides fused to TAT (mutant residues are highlighted). (FIG. 1E) OVCAR-3 cells were treated with biotinylated peptides (3 micromoles per liter, final concentration) for 16 hours. Internalized peptides were detected by staining fixed cells with Texas Red-conjugated streptavidin. Nuclei were visualized by staining with 4′,6-Diamidino-2-Phenylindole (DAPI). (FIGS. 1F and 1G) OVCAR-3 cell lysates were incubated with peptides as described for FIG. 1B. In (FIG. 1F), immunoprecipitation was performed using streptavidin-agarose and Western blot performed using eIF4E antibody. In (FIG. 1G), immunoprecipitation was performed using eIF4E antibody, and Western blot performed using eIF4G antibody.
(§2) FIGS. 3A-3H. Uptake, binding and inhibitory effects of [DLys6]GnRH-4EBP fusion peptides. (FIG. 3A) Sequences of [DLys6]GnRH, and wild-type and mutant 4EBP1 peptides fused to the agonist. (FIG. 3B) Western blot of GnRH-RI levels in OVCAR-3, ES-2, MDA-MB-231, BJ, HUVEC and SKOV3 cells. (FIG. 3C) Detection of biotinylated peptides in OVCAR-3 and SKOV3 by Texas Red-conjugated streptavidin at 16 hours after peptide addition (3 micromoles per liter). In (FIGS. 3D and 3E), biotinylated peptides were incubated with OVCAR-3 cell lysate as described in FIG. 1. In (FIG. 3D), peptide was pulled down using streptavidin-agarose. Precipitates (P) and supernatants (S) were analyzed by Western blot using eIF4E antibody. In (FIG. 3E), immunoprecipitation was performed using eIF4E antibody, and Western blot performed using eIF4G antibody. (FIG. 3F) R-Luc and F-Luc activities were assayed in ES-2-DualLuc cells at 6 hours after addition of the indicated concentrations of peptides, and are expressed relative to the respective luciferase activities in cells incubated without peptide. Shown are results of triplicate assays performed independently two times, and the statistical significance of differences in relative R-Luc and F-Luc activities in cells treated with peptide at a concentration of 10 micromoles per liter (FIG. 3G) Cells of GnRH-RI-positive and -negative lines were treated with the indicated concentrations of peptides. […]

[1] = target: T2, binding of eIF4E to eIF4G (Homo sapiens, UniProt P06730); experiment: Immunoprecipitation with eIF4E antibody and Western blot with eIF4G antibody, OVCAR-3 cell lysate incubated with peptide; conditions: peptide 3 micromoles per liter, 250 micrograms OVCAR-3 cell lysate
T2 construct: endogenous in cells; host or cells: OVCAR-3 cell lysate
Protocol: as §1, §2

ES-2-DualLuc cells = experiment: Cell-based translation assay with bicistronic R-Luc/F-Luc reporter
Protocol: (§3) FIGS. 2A-2F. Inhibition of cap-dependent translation and cell growth by TAT-4EBP fusion peptides. (FIG. 2A) Representation of the pIRES-DualLuc bicistronic construct containing Renilla Luciferase (R-Luc) and firefly luciferase (F-Luc) genes. In (FIG. 2B), R-Luc and F-Luc activities were assayed in ES-2-DualLuc cells following treatment for 24 hours with rapamycin and for 3 hours with cycloheximide with the indicated concentrations of these drugs, and expressed relative to the respective luciferase activities in cells incubated without drug. Cell viability was not affected by rapamycin and cycloheximide under these conditions. In (FIG. 2C), R-Luc and F-Luc activities were assayed in ES-2-DualLuc cells following treatment for 6 hours with the indicated concentrations of peptides, and expressed relative to the respective luciferase activities in cells incubated without peptide. Shown are results of triplicate assays performed independently two times, and the statistical significance of differences in relative R-Luc and F-Luc activities in cells treated with peptide at a concentration of 10 micromoles per liter. (FIG. 2D) Viability of OVCAR-3 cells at 3 days after addition of the indicated concentrations of peptides, expressed relative to viability of cells incubated without peptide. Shown are results of triplicate assays performed in two independent experiments, and statistical significances of differences in viability of cells treated with TAT-4EBP1-WT vs. TAT-4EBP1-MT, and of cells treated with TAT-4EBP2-WT vs. TAT-4EBP2-MT at a concentration of 10 micromoles per liter. (FIG. 2E) OVCAR-3 cells at 3 days after peptide addition (10 micromoles per liter) viewed under phase-contrast microscopy. (FIG. 2F) Flow cytometric analysis of staining of terminal deoxynucleotidyl transferase-mediated dUTP nick end labeling (TUNEL) in OVCAR-3 cells at 3 days after peptide addition (10 micromoles per liter). Cells incubated for 3 days in the absence of peptide in medium with and without serum are included as controls.
FIGS. 3A-3H. Uptake, binding and inhibitory effects of [DLys6]GnRH-4EBP fusion peptides. (FIG. 3A) Sequences of [DLys6]GnRH, and wild-type and mutant 4EBP1 peptides fused to the agonist. (FIG. 3B) Western blot of GnRH-RI levels in OVCAR-3, ES-2, MDA-MB-231, BJ, HUVEC and SKOV3 cells. (FIG. 3C) Detection of biotinylated peptides in OVCAR-3 and SKOV3 by Texas Red-conjugated streptavidin at 16 hours after peptide addition (3 micromoles per liter). In (FIGS. 3D and 3E), biotinylated peptides were incubated with OVCAR-3 cell lysate as described in FIG. 1. In (FIG. 3D), peptide was pulled down using streptavidin-agarose. Precipitates (P) and supernatants (S) were analyzed by Western blot using eIF4E antibody. In (FIG. 3E), immunoprecipitation was performed using eIF4E antibody, and Western blot performed using eIF4G antibody. (FIG. 3F) R-Luc and F-Luc activities were assayed in ES-2-DualLuc cells at 6 hours after addition of the indicated concentrations of peptides, and are expressed relative to the respective luciferase activities in cells incubated without peptide. Shown are results of triplicate assays performed independently two times, and the statistical significance of differences in relative R-Luc and F-Luc activities in cells treated with peptide at a concentration of 10 micromoles per liter (FIG. 3G) Cells of GnRH-RI-positive and -negative lines were treated with the indicated concentrations of peptides. Viability at 3 days after peptide addition is expressed relative to viability of cells incubated with no peptide. Shown are results of triplicate assays performed in two independent experiments, and statistical significances of differences in viability of cells treated with wild-type vs. mutant [DLys6]GnRH-4EBP1 peptides at a concentration of 10 micromoles per liter. (FIG. 3H) ES-2 and parental SKOV3 cells at 3 days after peptide addition (30 micromoles per liter) viewed under phase-contrast microscopy. […]

OVCAR-3 cells = experiment: Cell viability assay (crystal violet); type: cell-based; conditions: OVCAR-3, 3 days after peptide addition, 0.3 to 30 micromoles per liter
Protocol: as §3, with “Shown are results of triplicate assays performed in two independent experiments, and statistical significances of differences in viability of cells treated with TAT-4EBP1-WT vs. TAT-4EBP1-MT, and of cells treated with TAT-4EBP2-WT vs. TAT-4EBP2-MT at a concentration of 10 micromoles per liter. (FIG. 2E) OVCAR-3 cells at 3 days after peptide addition (10 micromoles per liter) viewed under phase-contrast microscopy. (FIG. 2F) Flow cytometric analysis of staining of terminal deoxynucleotidyl transferase-mediated dUTP nick end labeling (TUNEL) in OVCAR-3 cells at 3 days after peptide addition (10 micromoles per liter). Cells incubated for 3 days in the absence of peptide in medium with and without serum are included as controls.” left out
FIGS. 3A-3H. […] Precipitates (P) and supernatants (S) were analyzed by Western blot using eIF4E antibody. […]

[2] = rapamycin 24 hours, cycloheximide 3 hours

T2 sequence (P06730 2-217 limits assumed): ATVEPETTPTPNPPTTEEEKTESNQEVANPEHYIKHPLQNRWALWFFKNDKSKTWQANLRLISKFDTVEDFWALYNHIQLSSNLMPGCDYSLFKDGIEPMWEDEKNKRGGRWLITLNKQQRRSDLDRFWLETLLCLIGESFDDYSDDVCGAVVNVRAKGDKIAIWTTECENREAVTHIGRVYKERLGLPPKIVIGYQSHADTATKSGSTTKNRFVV
T1 sequence (P06730 whole entry): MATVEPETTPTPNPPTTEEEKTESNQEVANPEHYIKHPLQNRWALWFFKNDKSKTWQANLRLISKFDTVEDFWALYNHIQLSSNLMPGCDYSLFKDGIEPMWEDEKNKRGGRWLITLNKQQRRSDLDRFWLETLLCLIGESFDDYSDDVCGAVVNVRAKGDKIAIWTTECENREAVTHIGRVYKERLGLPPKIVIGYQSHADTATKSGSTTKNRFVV

Row | Molecule | binding of peptide to eIF4E (eIF4E) | inhibition of eIF4E binding to eIF4G [1] | also measured
1 | 4EBP2-WT: peptide containing the region of 4EBP2 corresponding to residues 49-68 of 4EBP1 (GTRIIYDRKFLLDRRNSPMA) | bound to eIF4E | inhibited eIF4E from binding eIF4G | 
2 | C[C@@H]1C[C@@H]([C@H](O)CC2CC(=O)NC(=O)C2)C(=O)[C@@H](C)C1 [cycloheximide] |  |  | cap-dependent translation (R-Luc read-out) (ES-2-DualLuc cells; [2]): inhibited both cap-dependent and independent translation; cap-independent translation (F-Luc readout) (ES-2-DualLuc cells; [2]): inhibited both cap-dependent and independent translation; cell viability under translation assay conditions (ES-2-DualLuc cells; [2]): not affected
3 | CO[C@H]1C[C@@H]2CC[C@@H](C)[C@@](O)(O2)C(=O)C(=O)N2CCCC[C@H]2C(=O)O[C@H]([C@H](C)C[C@@H]2CC[C@@H](O)[C@H](OC)C2)CC(=O)[C@H](C)/C=C(\C)[C@@H](O)[C@@H](OC)C(=O)[C@H](C)C[C@H](C)/C=C/C=C/C=C/1C [rapamycin] |  |  | cell viability under translation assay conditions (ES-2-DualLuc cells): not affected
4 | TAT-4EBP1-MT: TAT-4EBP1 fusion peptide in which Tyr-54, Arg-56 and Leu-59 were substituted by Gly (YGRKKRRQRRRGTRIIGDGKFGMECRNSPVT) | substantially impaired | substantially impaired | 
5 | TAT-4EBP2-MT: TAT-4EBP2 fusion peptide in which Tyr-54, Arg-56 and Leu-59 were substituted by Gly (YGRKKRRQRRRGTRIIGDGKFGLDRRNSPMA) | substantially impaired | substantially impaired | 
6 | TAT-4EBP2-WT: wild-type 4EBP2 residues fused to cell-penetrating residues of HIV TAT protein (YGRKKRRQRRRGTRIIYDRKFLLDRRNSPMA) |  |  | cap-dependent translation (R-Luc read-out) (ES-2-DualLuc cells; peptide 6 hours, 0.3 to 10 micromoles per liter, relative to cells without peptide): also inhibited cap-dependent translation, but was slightly less effective than TAT-4EBP1-WT; cell viability / growth (OVCAR-3 cells): decreased cell viability in a dose-dependent manner
